Test results as given in US11261449B2, “Anti-cancer RNA aptamers” (CITY OF HOPE, priority 2015, dated 2022).

Tests used:
[1] = test system: Non pancreatic lines including Huh7, HepG2, MCF7 and PC3 cells; assay: Confocal internalization / cell binding in non pancreatic cancer lines; format: cell-based; conditions: Cy3-labeled RNA, liver, breast and prostate cancer lines
Experimental: (§1) For the internalization, the cells were grown in 35 mm glass bottom dishes (MatTek, Ashland, Mass., USA) with seeding at 1×10^5 cells in medium for 24 hrs. The RNAs were labeled with Cy3 using the Cy3 Silencer siRNA labeling kit (Ambion, Tex., USA.). Cy3-labeled RNAs at 100 nM were added to the cells and incubated for 1 hour. The images were taken using a Zeiss LSM 510 Meta Inverted 2 photon confocal microscope system using a C-Apo 40×/1.2 NA Water immersion objective.

[2] = test system: pancreatic cell lines PANC-1, AsPC-1, MIA PaCa and Capan-1; assay: Live cell confocal internalization in pancreatic cancer cell lines; format: cell-based, human; conditions: Cy3-labeled RNA 100 nM
Experimental: as §1

[3] = test system: Panc-1; assay: Binding to Panc-1 cells by flow cytometry with Cy3-labeled aptamers (KD); set-up: species or system human; conditions: Cy3 labeled aptamers 15.6-500 nM, MFI, one site binding non-linear regression; read-out: binding affinity (Kd)
Experimental: Aptamer binding and uptake was also assessed by flow cytometry. For the assay, cells were detached using a non-enzymatic cell dissociation solution, washed with PBS and suspended in binding buffer. Next, Cy3-labeled aptamers were added and incubated for 1 hours at 37° C. The binding of individual aptamers for the starting pool as a control to pancreatic cancer cells was performed in triplicate. Flow cytometry was performed on a Cyan (Beckman Coulter counter) and Fortessa. The data were analyzed with FlowJo software.
To determine the binding affinity of aptamers to Panc-1, the median fluorescence intensity (MFI) of each concentrations was determined and subtracted the mean fluorescence background of controls from the corresponding MFI of aptamers described by Sefah et al^53. The dissociation constants were calculated using one site binding non-linear curve regression with a Graph Pad Prism (GraphPad Software, La Jolla, Calif., USA).

[4] = test system: Panc-1 engrafted mice; assay: Anti-tumor effects in Panc-1 (PANC-Luc) engrafted NOD/SCID mice; format: in vivo; conditions: P19 conjugates 1 nmol tail vein; gemcitabine 3 mg I.P.; listed as Gemcitabine
Experimental: To establish the traceable tumor animal models, subcutaneous implantations were performed by injecting 25 μl of a monocellular suspension containing 10^6 Panc-1 cell with luciferase expression (PANC-Luc) cells and a 25p growth factor reduced matrigel matrix (BD Biosciences, USA) under the dorsal skin of 6-week-old female NOD/SCID mice (BioLasco Co., Taiwan). The firefly luciferase fragment was inserted into the pcDNA-3.1(+) backbone encoding ampicillin resistance for selection in bacteria and neo gene for selection in mammalian cells. The recombinant constructs for stable cell line were purified using plasmid midi kit (QIAGEN, USA). PANC-1 cells were transfected with recombinant constructs for 24 h. The following day, culture medium was replaced with standard medium containing 1.2 mg/mL G418 (Merck, Germany) for stable clone selection. […] Luciferase expression was assessed using the Luciferase Assay System. […] Tumor growth was monitored by evaluating bioluminescence using the spectrum of IVIS 200 before first injection and one week after last injection. […] The mice were imaged in the spectrum of IVIS 200 and bioluminescent signals were analyzed using Living Image Software (Caliper Life Sciences, Alameda, Calif.). Tumor size was measured by ruler and calculated by the formula 0.52*length*width*width

[5] = Cytotoxicity compared with gemcitabine (hemoglobin, WBC, neutrophil, platelet counts); format: in vivo; conditions: engrafted mice
Experimental: FIG. 5A-5F. In vivo experiments. (FIG. 5A) The conjugates of P19 and P1 was injected via tail vein injection in Panc-1 engrafted mice. The conjugates were injected day 1, 3 and 5 for 3 or 4 weeks. Student t-test (unpaired, two-tailed) was used for statistical analysis. *t-test: […] (FIG. 5B) The photon was counter by I.V.I.S and signal changes were calculated in traceable xenoengrafted mice. (FIG. 5C) The representative images of the spectrum of IVIS 200 of each group. (FIG. 5D) Comparison of anti-tumor effect of C/EBPα-saRNA with gemcitabine in Panc-1 engrafted mice by tail vein injection. Tumor size was measured. *t-test: […] (FIG. 5E) The tumor growth inhibition of gemcitabine-resistant ASPC-1 engrafted mice by tail vein injection. Signal changes were calculated. Metastasis to ascites was measured. *t-test: […] (FIG. 5F) Comparison of cytotoxicity with gemcitabine. Hemoglobin, WBC, neutrophil and platelet were counted.

[6] = test system: pancreatic cancer; conditions: cited from earlier work
[7] = biological target: T1, cell membrane proteins (Homo sapiens, UniProt P38646); assay: Retrieval of cell membrane proteins by biotinylated aptamers and MASS-SPEC; conditions: peptide matching fingerprinting
T1 construct: cell membrane proteins were retrieved by biotinylated aptamers; endogenous in cells
Source text: (§2) P1 and P19 were labeled with biotin at the 3′ end. Target membrane proteins were isolated following procedures described by Daniels et al^26 or extracted by ProteoExtract Native Membrane protein Extraction Kit (Calbiochem). Agilent 6520 Q-TOF mass spectrometer used to identify aptamer retrieved proteins. A BIAcore T100 (GE Healthcare, Uppsala, Sweden) was used to measure binding by surface plasmon resonance (SPR) technique. BIAevaluation software (GE Healthcare) was used for analysis. Gel shift assay was also performed to validate the target ligand binding.

[8] = test system: gemcitabine-resistant ASPC-1 engrafted mice; assay: Gemcitabine resistant AsPC-1 tumor in NOD/SCID mice; format: in vivo; conditions: tail vein, 4 injections at days 1, 3, 5, 7, sacrificed day 9
Experimental: (§3) For gemcitabine resistant tumour test, twelve 5-weeks-old female NOD/SCID mice were injected subcutaneously (S.C.) on the flank with 2.8×10^6 AsPC-1 pancreatic cancer cells in 0.05 ml PBS with 0.15 ml matrigel. After 3 weeks, mice were divided into four groups. One group served as untreated controls and the others injected with P1 (10 ug per injection), P19 (10 ug per injection) and P1 combined with P19 (5 ug of P1 with 5 ug of P19 per injection). Aptamer were injected through tail vein. Animals were injected 4 times at days 1, 3, 5, and 7, and were sacrificed at day 9.
as §3, with “To test chemoresistant tumor regression in mice,” for “For gemcitabine resistant tumour test,”, “ASPC-1 gemcitabine resistant” for “AsPC-1”, “P1,” for “P1 (10 ug per injection),”, “P19” for “P19 (10 ug per injection)”, “P19.” for “P19 (5 ug of P1 with 5 ug of P19 per injection).”

[9] = test system: normal tissues such as liver, spleen, and kidney; T and B cells; assay: Staining of other normal tissues and T and B cells; set-up: species or system human; conditions: Cy3 labeled aptamer
Experimental: FIG. 2A-2B. Histology (FIG. 2A) The representative images by histopathological screen in normal tissues. The samples were stained with Cy3 labeled aptamer P1 and P19 respectively. The sample sections were then examined under microscope at 100× magnification. Cy3-labeled RNA. (FIG. 2B) Flow cytometry analysis of P19 and P1 in T and B cells. Cy3-labeled RNAs were tested for binding to T and B cell isolated from human blood.

[10] = biological target: T2, mortalin (mitochondrial Hsp70) (Homo sapiens, UniProt P38646); assay: Surface plasmon resonance (BIAcore T100); format: binding; conditions: aptamer biotin-labeled at 3′ end immobilized on SA chip
Source text: as §2

[11] = test system: human pancreatic cancer and normal pancreas tissue specimens; assay: Histopathology staining with Cy3 labeled aptamers, aptamer score; conditions: for No. of Patients, Low (<7) staining / No. of Patients, Medium (>7 and <14) staining / No. of Patients, High (>14 and <20) staining: 72 patient samples; for No. of Patients, Low (<7) staining: aptamer score <7; for No. of Patients, Medium (>7 and <14) staining: aptamer score >7 and <14; for No. of Patients, High (>14 and <20) staining: aptamer score >14 and <20; for recognition of pancreatic cancer versus normal pancreas tissues: Cy3 labeled aptamer, histopathology; for Survival Period, High (>14 and <20) staining group / Survival Period, Low (<7) staining group / Survival Period, Medium (>7 and <14) staining group: Table 5, Mean ± SD
Experimental: The samples were stained by aptamer P1 and P19 respectively. We linked P1 and P19 with Cy3 as marker and DAPI stating was performed for cell nuclei as background. The sample sections were then examined under microscope at 100× magnification, and the aptamer content in each slide of pancreatic cancer was determined by measuring the average of positive-stained particle numbers in five independent fields randomly.
A total of 72 patients (45 male and 27 female) of pancreatic adenocarcinoma had undergone surgical intervention between January 2008 and December 2010 in National Taiwan University Hospital. Diagnosis was settled by pathologic analysis of specimen. All of the enrolled patients fulfilled the informed consent to receive the procedure, and this study was Institutional Review Board approved of NTUH.

[12] = biological target: T2, mortalin (mitochondrial Hsp70); assay: Gel shift assay; format: binding; conditions: native PAGE
Source text: as §2

[13] = test system: Panc-1 cells; assay: Competition of Cy3 labeled P19 with unlabeled clones, confocal; format: binding, human; conditions: 200 nM Cy3 labeled P19, 1 μM unlabeled clone
Experimental: For competition assays, 200 nM of Cy3 labeled P19 aptamer was used to compete with either unlabeled clones (1 μM). The fluorescence intensity was quantified in the presence of increasing amounts of competitors using confocal microscopy and analyzed statistically. One-way ANOVA was used for statistical significant analysis (P<0.05).

T2 sequence (P38646 47-679): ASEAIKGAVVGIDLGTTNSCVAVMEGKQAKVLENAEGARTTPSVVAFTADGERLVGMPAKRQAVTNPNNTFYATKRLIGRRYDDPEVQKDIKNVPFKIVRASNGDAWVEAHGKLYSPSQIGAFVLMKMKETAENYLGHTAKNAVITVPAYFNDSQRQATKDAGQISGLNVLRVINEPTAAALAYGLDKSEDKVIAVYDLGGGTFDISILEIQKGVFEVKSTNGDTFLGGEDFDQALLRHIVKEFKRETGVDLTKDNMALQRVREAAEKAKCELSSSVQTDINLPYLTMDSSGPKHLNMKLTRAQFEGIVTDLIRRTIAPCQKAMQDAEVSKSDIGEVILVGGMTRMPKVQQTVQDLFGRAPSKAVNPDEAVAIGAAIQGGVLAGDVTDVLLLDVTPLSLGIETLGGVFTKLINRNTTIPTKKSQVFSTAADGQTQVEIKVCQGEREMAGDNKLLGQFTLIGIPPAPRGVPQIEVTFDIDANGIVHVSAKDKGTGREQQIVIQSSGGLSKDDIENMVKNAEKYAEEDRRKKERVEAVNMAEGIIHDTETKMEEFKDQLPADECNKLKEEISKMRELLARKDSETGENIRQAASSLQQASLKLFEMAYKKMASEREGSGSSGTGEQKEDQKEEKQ
T1 sequence (P38646 47-679): as above

Row | Molecule | internalization / binding in non pancreatic cancer lines [1] | internalization in pancreatic cancer cells [2] | Kd [3] | target ligand identified [7] | anti-tumor effect of aptamers only (tumor size) [8] | staining of other normal tissues including T and B cells [9] | binding by SPR [10] | No. of Patients, Low (<7) staining [11] | No. of Patients, Medium (>7 and <14) staining [11] | No. of Patients, High (>14 and <20) staining [11] | recognition of pancreatic cancer versus normal pancreas tissues [11] | Survival Period, High (>14 and <20) staining group [11] | Survival Period, Low (<7) staining group [11] | Survival Period, Medium (>7 and <14) staining group [11] | gel shift [12] | other results
1 | truncated P19: P19 truncated to 28mer including the common motif GAAUGCCC, SEQ ID NO:1 (CUCAAUGGCGAAUGCCCGCCUAAUAGGG; listed as RNA, chemistry not fully specified) | negative reaction | internalized into Panc-1 and AsPC-1 cells | 8.77 nM |  |  |  |  |  |  |  |  |  |  |  |  | 
2 | Nc1ccn([C@@H]2O[C@H](CO)[C@@H](O)C2(F)F)c(=O)n1 [gemcitabine, 4-amino-1-(2-deoxy-2,2-difluoro-β-D-erythro-pentofuranosyl)pyrimidin-2(1H)-on] |  |  |  |  |  |  |  |  |  |  |  |  |  |  |  | anti-tumor effects compared with PBS group [4]: failed to reduce tumor growth; cytotoxicity (hemoglobin, WBC, neutrophil, platelet) [5]: cytotoxicity such as reduction of hemoglobin and neutrophils; cytotoxicity (hemoglobin, WBC, neutrophil, platelet) ([5]; listed as Gemcitabine): cytotoxicity on RBCs and neutrophils; 1-year survival rate ([6]; single agent, improved from 16): 19%
3 | C#Cc1cccc(Nc2ncnc3cc(OCCOC)c(OCCOC)cc23)c1 [erlotinib] |  |  |  |  |  |  |  |  |  |  |  |  |  |  |  | median added to overall survival ([6]; addition of erlotinib, randomized study): 11 days; survival benefit ([6]; phase III trial of erlotinib with gemcitabine, advanced disease): marginal survival benefit
4 | P1: 2′F RNA aptamer selected by whole cell SELEX on Panc-1, SEQ ID NO:4 (nucleic acid, all phosphodiester, sugars by position and methylation of C not given here; 2'-fluoro modified RNA) GGGAGACAAGAAUAAACGCUCAAUGCGCUGAAUGCCCAGCCGUGAAAGCGUCGAUUUCCAUCCUUCGACAGGAGGCUCACAACAGGC | No Cy3 signal was observed | punctate regions of Cy3 labeling | 2.2 nM | mitochondrial Hsp70 which is mortalin | anti-tumor effects in gemcitabine resistance tumour cells significantly | negative staining | bound to the mortalin | 3 | 26 | 43 | recognized pancreatic cancer tissues specifically, not normal pancreas tissues | 13.1 ± 4.36 | 21.0 ± 2.64 | 15.9 ± 3.17 | shifted band was observed | survival period, medium level group [11]: 15.9±3.17 months
5 | P19: 2′F RNA aptamer selected by whole cell SELEX on Panc-1, SEQ ID NO:2 (nucleic acid, all phosphodiester, sugars by position and methylation of C not given here; 2'-fluoro modified RNA) GGGAGACAAGAAUAAACGCUCAAUGGCGAAUGCCCGCCUAAUAGGGCGUUAUGACUUGUUGAGUUCGACAGGAGGCUCACAACAGGC | No Cy3 signal was observed | punctate regions of Cy3 labeling | 13.1 nM | mitochondrial Hsp70 which is mortalin | anti-tumor effects in gemcitabine resistance tumour cells significantly | negative staining | bound to the mortalin | 3 | 26 | 43 | recognized pancreatic cancer tissues specifically, not normal pancreas tissues | 13.0 ± 4.29 | 21.0 ± 2.64 | 15.6 ± 3.30 | shifted band was observed | fluorescence intensity of labeled P19 in presence of unlabeled competitor [13]: significantly decreased
